Test results as given in patent US5910478A, “Peptidomimetics inhibiting the oncogenic action of p21 ras” (Innapharma, Inc., dated 1999).

T1: recombinant transforming ras p21 (human)
T1 chain: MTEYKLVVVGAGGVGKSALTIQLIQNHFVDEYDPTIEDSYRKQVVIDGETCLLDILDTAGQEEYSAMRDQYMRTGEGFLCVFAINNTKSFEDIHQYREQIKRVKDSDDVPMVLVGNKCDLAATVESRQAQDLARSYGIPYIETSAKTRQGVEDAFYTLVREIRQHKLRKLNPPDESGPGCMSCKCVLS


Test system: oncogenic ras-p-21
Assay: not given
Conditions: background; cited from earlier work

Molecule | inhibition of oncogenic ras-p-21
N[C@@H](Cc1ccc(O)cn1)C(=O)O [Azatyrosine] | strongly inhibits

Biological target: T1, recombinant transforming ras p21
Assay: cell-based or functional assay
Conditions: not given

Molecule | Present Inhibition of ras-Induced Maturation
VVI [Val-Val-Ile] | 34 percent
GNKCDLAARTVE [peptide of SEQ ID NO:8 (residues 115 to 126 of SEQ ID NO:5)] | 92 percent
KCDLA [peptide of SEQ ID NO:2 (residues 117 to 121 of SEQ ID NO:5)] | 38 percent
CDLAART [peptide of SEQ ID NO:9 (residues 118 to 124 of SEQ ID NO:5)] | 65 percent
IKRVKD [peptide of SEQ ID NO:1 (residues 100 to 105 of SEQ ID NO:5)] | 76 percent

Continued, values first:

Present Inhibition of ras-Induced Maturation | Molecule
22 percent | DLAA [peptide of SEQ ID NO:4 (residues 119 to 122 of SEQ ID NO:5)]
22 percent | KRV [Lys-Arg-Val]
56 percent | YREQIKRVKDSDDVP [peptide of SEQ ID NO:7 (residues 96 to 110 of SEQ ID NO:5)]
28 percent | TIEDSYRKQVVID [peptide of SEQ ID NO:6 (residues 35 through 47 of SEQ ID NO:5)]
